{"source": "patent US20090029924A1", "data": [{"target": "Recombinant human furin (human) (UniProt P09958)", "sequence (P09958 108-714 limits assumed)": "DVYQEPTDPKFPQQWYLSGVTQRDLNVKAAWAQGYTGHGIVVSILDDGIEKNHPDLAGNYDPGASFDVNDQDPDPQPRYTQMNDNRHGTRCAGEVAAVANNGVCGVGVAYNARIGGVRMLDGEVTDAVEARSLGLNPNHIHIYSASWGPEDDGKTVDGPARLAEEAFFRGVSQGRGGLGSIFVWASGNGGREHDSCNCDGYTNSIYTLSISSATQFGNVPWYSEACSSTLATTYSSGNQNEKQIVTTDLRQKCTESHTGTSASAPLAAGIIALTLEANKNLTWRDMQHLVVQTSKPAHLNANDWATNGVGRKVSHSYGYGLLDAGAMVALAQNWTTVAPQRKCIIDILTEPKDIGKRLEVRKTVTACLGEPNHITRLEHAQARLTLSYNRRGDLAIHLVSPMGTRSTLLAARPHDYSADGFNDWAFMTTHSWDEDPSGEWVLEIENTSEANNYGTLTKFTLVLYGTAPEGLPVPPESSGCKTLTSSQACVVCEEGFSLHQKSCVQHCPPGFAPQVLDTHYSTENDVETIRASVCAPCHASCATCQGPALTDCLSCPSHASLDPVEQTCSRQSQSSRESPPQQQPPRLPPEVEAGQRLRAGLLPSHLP", "assay": "furin, Pyr-RTKR-AMC cleavage", "units": {"Ki": "nM"}, "values": [{"substance": "TPQR7RRRKKRG (peptide)", "Ki": "> 100"}, {"substance": "TPQRkRRRKKRG (peptide)", "Ki": "> 100"}, {"substance": "TPQReRRRKKRG (peptide)", "Ki": "> 100"}, {"substance": "TPQR2RRRKKRG (peptide)", "Ki": "> 100"}, {"substance": "TPQR3RRRKKRG (peptide)", "Ki": "> 100"}, {"substance": "TPQR6RRRKKRG (peptide)", "Ki": "> 100"}, {"substance": "TPQR4RRRKKRG (peptide)", "Ki": "> 100"}, {"substance": "TPQR1RRRKKRG (peptide)", "Ki": "> 100"}, {"substance": "TPQR5RRRKKRG (peptide)", "Ki": "> 100"}, {"substance": "TPQR8RRRKKRG (peptide)", "Ki": "> 100"}, {"substance": "TPQRrRRRKKRG (peptide)", "Ki": "> 100"}]}]}
